Measurements reported in patent US20060223140.

What was measured:
PAMP-12 = target: T1, PAMP-12
T1 chain: FRKKWNKWALSR

peptide-T = target: T2, peptide-T
T2 chain: ASTTTNYT

B1: recombinant endo-α-N-acetylgalactosaminidase derived from Bifidobacterium longum JCM1217 (protein)
chain: MKKKKTISAALATALALTCMGSGGGTAFAVPLSDADLQTLASQIQQINDTSDSATASETPSAQADAVEGWTIDSNIAQGGEILEMANGWLHLKSTASNGNAAANPSSSNNWPAVAVWGTDYDFSKAGSFHATIKSPQEGSANRFGFYLGYNDPGSGLFIGYDSGGWFWQTYTGGGSGSWYSGARIAAPSANEEHDIRVSWTDAKVATLTVDGQKAFDVDYSAMTNLSNKLAIKAGSWKELNEVTDVYIKDFPEVVEAAKHAVSGKVVDAGGAAIEGATVRLDKTKVKTGADGTFSFADIEEGEHTLSIAKEGYEDVSQQVTVSGADLAIDPITLNKTVQVASETLKTKKMEVQIKKNFPSVLQYTMTDGKVMYGQSKDVRTVEINGTNIELGDDDVTFKKVSDTEATYTLKVKDEAKKIDAVITVQITVKANQLHLNVTKIKNNLSEGIPEGNGVEENAIQTLSFPNQSLVSVRSSQENAQFTGARMSSNTQKPGDTNFAVTEDTNVTDSDYTYGFISGAGLSAGLWSNSEHDGTYVAAPVRGGSQNTRVYATTQQTGDATSLGLASAPWYYHRTVTDSKGKKYTVAETALPQMAVAIAGDENEDGAVNWQDGAIAYRDIMNNPYKSEEVPELVAWRIAMNFGSQAQNPFLTTLDNVKKVALNTDGLGQSVLLKGYGNEGHDSGHPDYGDIGQRLGGADDMNTMMEEGSKYGARFGVHVNASEMYPEAKAFSEDMVRRNSAGGLSYGWNWLDQGVGIDGIYDLASGSRVSRFADLSKEVGDNMDFIYLDVWGNLTSSGSEDSWETRKMSKMINDNGWRMTTEWGSGNEYDSTFQHWAADLTYGGYTSKGENSEVMRFLRNHQKDSWVGDYPQYGGAANAPLLGGYNMKDFEGWQGRNDYAAYIKNLYTHDVSTKFIQHFKVTRWVNNPLLTADNGNAAAVSDPNTNNGNEQITLKDSNGNVVVVSRGSNDTSSAAYRQRTITFNGVKVASGVVSAGDGSATGDESYLLPWMWDSFTGKLVKDSEQKLYHWNTKGGTTTWTLPDSWKNLSSVKVYQLTDQGKTNEQTVAVSGGKVTLTADAETPYVVYKGEAKQIQVNWSEGMHVVDAGFNGGSNTLTDNWTVSGSGKAEVEGDNNAMLRLTGKVDVSQRLTDLKAGQKYALYVGVDNRSTGDASVTVTSGGKVLATNSTGKSIAKNYIKAYGHNTNSNTENGSSYFQNMYVFFTAPENGDATVTLSHKSTDGAHTYFDDVRIVENQYSGITYEKDGTLKSLTNGFENNAQGIWPFVVSGSEGVEDNRIHLSELHAPFTRAGWDVKKMDDVLDGTWSVKVNGLTQKGTLVYQTIPQNVKFEAGAKYKVSFDYQSGSDDIYAIAVGQGEYSAGSVKLTNLKKALGETGKAEFELTGGVNGDSWFGIYSTATAPDLQGSTGNAQDFGGYKDFVLDNLKIERIESQTRTKAEAQDKVKEIRGKYDSKRAELSDAAWQQYQDTLVKARVLINKNGATAEDFTKAYDILVALDEYMKTAPGNESSDKYDVAADGSDELGGYTVATGSEEPTAGLPSEGPADLAQDGNDSTHWHTSWSENAVGNGTAWYQFNLNEPTTINGLRYLPRSGGMNANGKIKGYKITLTLADGTTKDVVTDAEFSTTTMWQKASFDAVENVTAVRSTVLSSAGQSDSQANKFASAAELRLTTDREVEEETVAPDKTDLNDTIAKANGLKESDYTAESWTALVKAREAAQAVADNDKATAYDVALALTNLESAIAGLEKTGEEPGPGPVEVNKTDLQTAVNKASKLEKADYTTNSWEAFAEALKAAQQVLDNKNATQQDVDTALSALQDAISKLEAATEPKPNPEPGVVDKAALNATINKAAAINLGLYTDDSANALRAALKKAREVSDNSNATQKQVDAAREALEKAIAALVKRPAAKGDGNVVSNTGSDVATIALAGLLLAGAGAAIAYRRNREQL
PAMP-12
  transglycosylation activity (HPLC product peak; confirmed by MALDI-TOF-MS): it was demonstrated that the sugar chain was transferred to each peptide because peaks of transglycosylation products ("product" portion in each Figure) were observed
bradykinin
  transglycosylation activity (HPLC product peak; confirmed by MALDI-TOF-MS): it was demonstrated that the sugar chain was transferred to each peptide because peaks of transglycosylation products ("product" portion in each Figure) were observed
peptide-T
  transglycosylation activity (HPLC product peak; confirmed by MALDI-TOF-MS): it was demonstrated that the sugar chain was transferred to each peptide because peaks of transglycosylation products ("product" portion in each Figure) were observed
